Test results taken from paper doi:10.1101/2023.09.08.556779, “Molecular model of a bacterial flagellar motor in situ reveals a “parts-list” of protein adaptations to increase torque” (bioRxiv, 2024).

Key:
[1] = molecular target: PflB (C. jejuni 81–176 (endogenous in minicells)); assay: cryo-EM structure; in situ single particle analysis of C. jejuni ΔflhG ΔflaAB minicells, C17 symmetry; focused refinement of the periplasmic scaffold and first basal disk ring to 7.9 Å; AlphaFold models docked or flexibly fitted
[2] = molecular target: PflC, recombinant (C. jejuni); assay: SEC + other: mass photometry; analytical SEC on ENrich SEC 650 in 1× PBS, calibrated with 15–600 kDa standards; mass photometry in PBS
[3] = molecular target: the molecule itself; assay: cryo-EM structure; in situ single particle analysis of C. jejuni ΔflhG ΔflaAB minicells, C17 symmetry; focused refinement of the periplasmic scaffold and first basal disk ring to 7.9 Å; AlphaFold models docked or flexibly fitted
[4] = molecular target: the molecule itself; assay: SEC + other: mass photometry; analytical SEC on ENrich SEC 650 in 1× PBS, calibrated with 15–600 kDa standards; mass photometry in PBS

Work on “PflB (from UniProt A0A6F9L7Y3 1-820) (natural protein)” yielded a stoichiometry N [1] of 17.

PflC, recombinant (natural protein) gave a stoichiometry N [2] of 2.

B1: FliL (natural protein)
chain: MDEELENEETKKKKGGSLVIIIVILLFVLLLSIMGVIAWLISSSSSDESEVKEAPKEEAKADKPKVSAPTQRGSDFANIGPMYPLDPFTLNLLSDSGSRYVKCTIELEQNSELLKPELDKKVPVIRDIIIRTLTAKTFEEVSTQKGKERLKDELVGKINEILTDGFIKNVYFTDFVVS
notes: FliL of Campylobacter jejuni 81–176; an arc of four in each asymmetric unit of the proximal disk; source: endogenous, C. jejuni 81–176 (minicells imaged in situ; lysate of formaldehyde-crosslinked cells)
For B1, the “stoichiometry N” value [3] was 4.

B2: PflCN (Δ236–349), recombinant (domain or fragment)
chain: GIERPKFEDFLAGYERNKASMLNYEGMPAFALSENLLAVLKQPNTKLNKYVKYDPFLNLYLVRTDFSLIPTPMGDEEKLTRNDWVGIWDPNKPYIGHIKYLAQNIDEKDQLDFNSKIGLLGTPCCEMMGIALNNSSFIGNRYLKHFMKYNDVYWGDIGVDFVVRENKIYVNNVRKNPQFLINDQVISVDGLPANDLRKLNEKILFADRGSTLYFQVLRDNSGGDGKFQFFIRLTK
In the case of B2, the “stoichiometry N” value [4] is reported as 2.
